Test results reported in patent US20250257149A1 (GLYCOTOPE, published 2025).

Key:
[1] = biological target: T1, MUC1 tandem repeat peptide APPAHGVTSAPD-T(X)-RPAPGSTAPPAHGVTSA with GalNAcalpha (Tn) at T (human, GalNAcalpha (Tn) O-glycan on the threonine of PDTR; biotinylated); test: TA-MUC1 antigen ELISA, biotinylated glycopeptide
T1 construct: also called Tn-PDTR MUC1 peptide; Tn-MUC1 peptide
T1 peptide: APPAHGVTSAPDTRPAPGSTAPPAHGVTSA

[2] = biological target: T2, MUC1 tandem repeat peptide APPAHGVTSAPD-T(X)-RPAPGSTAPPAHGVTSA with sialylated GalNAcalpha (sTn) at T (human, sialylated GalNAcalpha (sTn) O-glycan on the threonine of PDTR; biotinylated); test: TA-MUC1 antigen ELISA, biotinylated glycopeptide
T2 construct: also called sTn-PDTR MUC1 peptide
T2 peptide: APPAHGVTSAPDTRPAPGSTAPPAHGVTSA

[3] = biological target: T3, MUC1 tandem repeat peptide APPAHGVTSAPD-T(X)-RPAPGSTAPPAHGVTSA with Galβ1-3GalNAcalpha (TF) at T (human, Galβ1-3GalNAcalpha (TF) O-glycan on the threonine of PDTR; biotinylated); test: TA-MUC1 antigen ELISA, biotinylated glycopeptide
T3 construct: also called TF-PDTR MUC1 peptide; TF-MUC1 peptide
T3 peptide: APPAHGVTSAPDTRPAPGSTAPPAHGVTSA

[4] = biological target: T4, MUC1 tandem repeat peptide APPAHGVTSAPD-T(X)-RPAPGSTAPPAHGVTSA with sialylated TF (sTF) at T (human, not fully specified; sialylated TF (sTF) O-glycan on the threonine of PDTR; biotinylated); test: TA-MUC1 antigen ELISA, biotinylated glycopeptide
T4 construct: also called sTF-PDTR MUC1 peptide
T4 peptide: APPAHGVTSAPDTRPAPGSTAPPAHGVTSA

[5] = biological target: T1, MUC1 tandem repeat peptide …; test: SPR (Biacore), biotinylated peptide on streptavidin chip
Protocol: (§1) Binding of the Fab-deglycosylated version of the MUC1-specific antibody PankoMab (PM-N54Q) on TA-MUC-1 derived glycosylated peptide was evaluated by surface plasmon resonance analysis (Biacore). A streptavidin sensor chip was coated with biotinylated TA-MUC1 peptide (Tn glycosylated or not glycosylated). PankoMab and PM-N54Q were diluted sequentially 1:3 from 3,600 to 4.9 nM in HPS-EP. The dilutions were injected at 50 μL/min. Maximal binding of each concentration was determined as response units (RU), respectively, and evaluated with GraphPad Prism using “one-site specific binding”. […] Therefore, in this experimental setting a nearly two-fold increase in affinity was detectable.

[6] = biological target: T1, MUC1 tandem repeat peptide …; test: antigen ELISA on Tn-glycosylated PDTR MUC1 peptide
[7] = biological target: T1, MUC1 tandem repeat peptide …; test: SPR (Biacore), biotinylated peptide on streptavidin chip, steady-state fit of maximal RU
Protocol: as §1

[8] = biological target: T3, MUC1 tandem repeat peptide …; test: antigen ELISA on TF-PDTR MUC1 peptide, purified antibody [panel Binding to TF-MUC1]
[9] = biological target: T1, MUC1 tandem repeat peptide …; test: antigen ELISA on Tn-PDTR MUC1 peptide, purified antibody [panel Binding to Tn-MUC1]
[10] = biological target: T3, MUC1 tandem repeat peptide …; test: antigen ELISA on TF-glycosylated PDTR MUC1 peptide [panel Binding to TF-MUC1 peptide]
[11] = biological target: T1, MUC1 tandem repeat peptide …; test: antigen ELISA on Tn-glycosylated PDTR MUC1 peptide [panel Binding to Tn-MUC1 peptide]
[12] = biological target: T5, biotinylated TA-MUC1 peptides (Example 4b); test: fluorescence proximity sensing (DRX2 switchSENSE), biotinylated peptide captured by streptavidin
T5 construct: also called antigen peptide
Source text: (§2) A new method to determine binding constants and affinity is the fluorescence proximity sensing using single stranded DNA (96mer) spotted on a chip and complementary DNA coupled to a ligand. In the present study streptavidin was used as a ligand to capture biotinylated TA-MUC1 peptides. […] On- and off-rates can be calculated during association and dissociation. Due to a higher sensitivity faster interactions can be monitored compared to surface plasmon resonance.
(§3) PankoMab and PM-N54Q were diluted from 300 nM in 1:9 steps to 3.67 nM in PE140 buffer and applied to the chip-bound peptides. Binding curves were evaluated by mono-exponential global fit (instrument software). Binding curves of PM and PM-N54Q are exemplarily shown in FIGS. 3A and B. Calculated affinities of PankoMab variants are shown in Table 2: […]

[13] = biological target: T4, MUC1 tandem repeat peptide …; test: antigen ELISA on sTF-glycosylated PDTR MUC1 peptide [panel Binding to sTF-MUC1 peptide]
[14] = biological target: T2, MUC1 tandem repeat peptide …; test: antigen ELISA on sTn-glycosylated PDTR MUC1 peptide [panel Binding to sTn-MUC1 peptide]
[15] = biological target: T5, biotinylated TA-MUC1 peptides (Example …); test: fluorescence proximity sensing (DRX, switchSENSE), biotinylated TA-MUC1 peptide captured by streptavidin; antibody at 3.7, 33.3 and 300 nM
Source text: as §2, §3

[16] = biological target: T6, His-tagged FcγRIIIa (Glycotope GmbH) (UniProt P08637 17-208, limits assumed); test: AlphaScreen competition, low-fucosylated antibody; His-tagged FcγRIIIa on Ni-chelate donor beads, competitor rabbit-anti-mouse coupled acceptor beads
T6 construct: also called Fcγ receptor IIIa; CD16a; not shown: His tag
Source text: For the receptor binding assays, His-tagged FcγRIIIa (Glycotope GmbH) is captured by Ni-chelate donor beads. Anti-MUC1 antibodies and rabbit-anti-mouse coupled acceptor beads compete for binding to FcγR. In case of interaction of FcγR with rabbit-anti-mouse-bound acceptor beads, donor and acceptor beads come into close proximity which leads, upon laser excitation at 680 nm, to light emission. A maximum signal is achieved (signalₘₐₓ) without a competitor. In case of competition, where a test antibody binds to FcγR, the signalₘₐₓ is reduced in a concentration-dependent manner. Chemiluminescence was quantified by measurement at 520-620 nm (AlphaScreen® method) using an EnSpire 2300 multilabel reader (PerkinElmer). All results were expressed as the mean±standard deviation of duplicate samples. The data were evaluated and calculated using non-linear curve fitting (sigmoidal dose-response variable slope) with GraphPad Prism 5 software. As a result, a concentration dependent sigmoidal curve was obtained, which is defined by top-plateau, bottom-plateau, slope and EC₅₀.

T6 sequence (P08637 17-208 limits assumed): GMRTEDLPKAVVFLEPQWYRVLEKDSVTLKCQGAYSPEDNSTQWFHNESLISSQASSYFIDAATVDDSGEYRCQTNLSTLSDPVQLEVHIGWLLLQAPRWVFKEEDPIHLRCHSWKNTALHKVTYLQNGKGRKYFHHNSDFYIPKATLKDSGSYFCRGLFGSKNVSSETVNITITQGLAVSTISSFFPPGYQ

B1: humanized antibody PankoMab N54Q (without Fab glycosylation) (antibody, human IgG1, kappa)
heavy: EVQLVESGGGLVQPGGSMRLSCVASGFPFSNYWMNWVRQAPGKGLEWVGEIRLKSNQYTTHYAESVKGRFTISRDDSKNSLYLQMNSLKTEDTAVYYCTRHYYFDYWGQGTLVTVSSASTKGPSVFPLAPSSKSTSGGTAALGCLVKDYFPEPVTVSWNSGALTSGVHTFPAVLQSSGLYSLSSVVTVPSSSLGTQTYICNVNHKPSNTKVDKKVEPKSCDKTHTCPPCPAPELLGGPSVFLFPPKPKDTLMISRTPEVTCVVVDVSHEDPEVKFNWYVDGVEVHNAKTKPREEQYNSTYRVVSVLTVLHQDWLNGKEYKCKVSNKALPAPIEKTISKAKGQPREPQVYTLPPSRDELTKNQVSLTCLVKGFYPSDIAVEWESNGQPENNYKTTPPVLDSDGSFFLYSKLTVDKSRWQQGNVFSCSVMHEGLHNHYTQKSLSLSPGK
light: DIVMTQSPLSNPVTPGEPASISCRSSKSLLHSNGITYFFWYLQKPGQSPQLLIYQMSNLASGVPDRFSGSGSGTDFTLRISRVEAEDVGVYYCAQNLELPPTFGQGTKVEIKRTVAAPSVFIFPPSDEQLKSGTASVVCLLNNFYPREAKVQWKVDNALQSGNSQESVTEQDSKDSTYSLSSTLTLSKADYEKHKVYACEVTHQGLSSPVTKSFNRGEC
notes: IgG1 kappa; Made in NM-H9D8 cells (for the FcγRIIIa assay also in NM-H9D8-E6Q12, low fucose); also called PM-N54Q; PM N54Q w/o Fab glyc
fold higher binding compared to PankoMab-GEX® [1]: 4 fold
fold better binding compared to PankoMab-GEX® [2]: ~7 fold
fold better binding compared to PankoMab-GEX® [3]: 2 fold
fold better binding compared to PankoMab-GEX® [4]: 2 fold
fold increase in affinity compared to PankoMab-GEX® [5]: ~2 fold
EC50 (read off the curve) [6]: ~20 ng/mL
Kd [7]: 388 nM
EC50 (read off the curve) [8]: ~10 ng/mL
EC50 (read off the curve) [9]: ~10 ng/mL
EC50 (read off the curve) [10]: ~10 ng/mL
EC50 (read off the curve) [11]: ~10 ng/mL
Kd [12]: 1.6 nM
EC50 (read off the curve) [13]: ~10 ng/mL
EC50 (read off the curve) [14]: ~100 ng/mL
Kd [15]: 1.63 nM
koff [15]: 0.0109 s⁻¹
kon [15]: 6.7e+06 M⁻¹ s⁻¹
IC50 (read off the curve) [16]: ~4000 ng/mL
